In US20240018256A1 (JUNO THERAPEUTICS, published 2024):
Substitutions are numbered along the chain they refer to. Blank lines part the entries; values can stand above or below the binder they belong to.

What was measured:
human CD19 [1] = biological target: T1, human CD19 (human, UniProt P15391 20-556); test: flow cytometry on CD19-expressing cells (n = 1)
T1 sequence: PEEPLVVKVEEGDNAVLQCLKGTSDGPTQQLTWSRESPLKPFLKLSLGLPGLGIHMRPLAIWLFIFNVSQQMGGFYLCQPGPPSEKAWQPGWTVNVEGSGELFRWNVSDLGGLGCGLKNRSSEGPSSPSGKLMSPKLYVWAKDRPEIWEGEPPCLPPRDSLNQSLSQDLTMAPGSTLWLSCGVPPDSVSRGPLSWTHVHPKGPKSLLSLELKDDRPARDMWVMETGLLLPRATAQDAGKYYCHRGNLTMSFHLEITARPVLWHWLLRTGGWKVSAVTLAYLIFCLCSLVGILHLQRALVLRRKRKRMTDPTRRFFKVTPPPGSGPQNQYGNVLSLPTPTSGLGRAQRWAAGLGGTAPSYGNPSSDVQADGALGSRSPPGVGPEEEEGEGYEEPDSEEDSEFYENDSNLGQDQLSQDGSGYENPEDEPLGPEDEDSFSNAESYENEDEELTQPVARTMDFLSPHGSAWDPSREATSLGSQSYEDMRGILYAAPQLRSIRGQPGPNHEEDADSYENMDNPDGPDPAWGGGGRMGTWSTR
Text: Various clones were titrated and their binding affinity (EC50) to various CD19-expressing cells assessed by flow cytometry.

human CD19 [2] = biological target: T1, human CD19; test: flow cytometry, scFv titrated on CD19-expressing K562 cells (FIG. 4, another plate)
human CD19 [3] = biological target: T1, human CD19; test: flow cytometry, scFv titrated on CD19-expressing K562 cells (FIG. 3A)
human CD19 [4] = biological target: T1, human CD19; test: flow cytometry competition for binding with FMC63 (n = 3)
human CD19 [5] = biological target: T1, human CD19; test: flow cytometry on CD19-expressing cells (n = 3)
human CD19 [6] = biological target: T1, human CD19; test: flow cytometry on CD19-expressing cells (n = 4)
human CD19 [7] = biological target: T1, human CD19; test: flow cytometry competition for binding with FMC63 (n = 1)
human CD19 [8] = biological target: T1, human CD19; test: flow cytometry, HIS-tagged scFv bacterial supernatant on CD19-transfected HEK293 cells (FIG. 8C)
Text: (§1) A third scFv library was generated by shuffling the VH sequences from the selection in (a) with the VL sequences resulting from the selection in (b). […] Binding by the selected scFv clones to CD19-expressing cells was confirmed by flow cytometry using bacterially-produced supernatant. The selected scFv pools were cloned into E. coli expression vectors and produced as HIS-tagged scFvs. Binding of individual clones to CD19-transfected HEK293 cells was detected with anti-HIS-Alexa647 conjugate by flow cytometry.

human CD19 [9] = biological target: T1, human CD19; test: flow cytometry, HIS-tagged scFv bacterial supernatant on CD19-transfected HEK293 cells (FIG. 8B)
Text: as §1

human CD19 [10] = biological target: T1, human CD19; test: flow cytometry, HIS-tagged scFv bacterial supernatant on CD19-transfected HEK293 cells (FIG. 8A)
Text: as §1

human CD19 [11] = biological target: T1, human CD19; test: flow cytometry, scFv titrated on CD19-expressing K562 cells (FIG. 4, one plate)
human CD19 [12] = biological target: T1, human CD19; test: flow cytometry competition for binding with FMC63 (n = 2)

binding result (human CD19 [8]): binds
B6: Clone 440 scFv (scFv)
scFv: QVQLVESGGGLVQPGRSLRLSCAASGFTFDDYAMHWVRQAPGKGLEWVSGISWNSGRIGYADSVKGRFTISRDNAKNSLFLQMNSLRAEDTAVYYCARDQGYHYYDSAEHAFDIWGQGTVVTVSSGGGGSGGGGSGGGGSQSALTQPASVSGSPGHSITISCTGTRSDVGGFDYVSWYQHNPGKAPKLIIYDVTKRPSGVSNRFSGAKSGITASLTISGLQAEDEADYYCTSYRPGPTFVFGTGTKLDIK
notes: HIS- or FLAG-tagged

binding result (human CD19 [8]): binds
B8: Clone 448 scFv (scFv)
scFv: QVQLVESGGGLVQPGRSLRLSCAASGFTFDDYAMHWVRQAPGKGLEWVSGISWNSGRIGYADSVKGRFTISRDNAKNSLFLQMNSLRAEDTAVYYCARDQGYHYYDSAEHAFDIWGQGTVVTVSSGGGGSGGGGSGGGGSQSALTQPASVSGSPGQSITISCTGTSSDLGGYNYVSWYQHRPGKAPKLIIYDVTVRPSGVSDRFSGSKSGNTASLTISGLQAEDEADYYCGSYTSSSTLLWVFGGGTKLDIK
notes: HIS- or FLAG-tagged

binding result (human CD19 [9]): binds
B9: Clone 336 scFv (scFv)
scFv: B8 scFv with D250T, I251V, K252L
notes: HIS- or FLAG-tagged

binding result (human CD19 [10]): binds
B10: Clone 283 scFv (scFv)
scFv: B8 scFv with D250T, I251V, K252L
notes: HIS- or FLAG-tagged

binding result (human CD19 [9]): binds
B11: Clone 302 scFv (scFv)
scFv: B8 scFv with D250T, I251V, K252L
notes: HIS- or FLAG-tagged

binding result (human CD19 [10]): binds
B12: Clone 272 scFv (scFv)
scFv: EVQLVESGGGLVQPGRSLRLSCAASGFTFDDYAMHWVRQAPGKGLEWVSGISWNSGRIGYADSVKGRFTISRDNAKNSLFLQMNSLRAEDTAVYYCARDQGYHYYDSAEHAFDIWGQGTVVTVSSGGGGSGGGGSGGGGSQSVLTQPPSVSAAPGQKVTISCSGSSSNIGNNYVSWYQQLPGTAPKLLIYDNNKRPSGIPDRFSGSKSGTSATLGITGLQTGDEADYYCGTWDSSLNRDWVFGGGTKLTVL
notes: HIS- or FLAG-tagged

The next lines start with the binder.

B1: Clone 506 scFv (scFv)
scFv: EVQLVESGGGLVQPGRSLRLSCAASGFTFDDYAMHWVRQAPGKGLEWVSGISWNSGRIGYADSVKGRFTISRDNAKNSLFLQMNSLRAEDTAVYYCARDQGYHYYDSAEHAFDIWGQGTMVTVSSGGGGSGGGGSGGGGSQLVLTQPPSVSGSPGQSVTFSCTGASSDVGGYDHVSWYQHHPGKGPKLLIYDVSKRPSGVPDRFSGSKSGNTASLTISGLQAEDEADYYCCSFAGYYTYWLFGGGTKVTVL
notes: Human scFv
EC50 (human CD19 [1]): 179 nM

B2: Clone 184 scFv (scFv, V domains shown)
VH: QVQLVESGGGLVQPGRSLRLSCAASGFTFDDYAMHWVRQAPGKGLEWVSGISWNSGRIGYADSVKGRFTISRDNAKNSLFLQMNSLRAEDTAVYYCARDQGYHYYDSAEHAFDIWGQGTMVTVSS
EC50 (human CD19 [2]): 114 nM
EC50 (human CD19 [1]): 114 nM

B3: Clone 192 scFv (scFv)
scFv: EVQLVESGGGLVQPGRSLRLSCAASGFTFDDYAMHWVRQAPGKGLEWVSGISWNSGRIGYADSVKGRFTISRDNAKNSLFLQMNSLRAEDTAVYYCARDQGYHYYDSAEHAFDIWGQGTMVTVSSGGGGSGGGGSGGGGSQAVLTQPRSVSGSPGQSVTISCTGISSGVDSHRYVSWYQHHPGKAPKLMIYDFSKRPSGVPDRFSGSKSGNTASLTISGLQAEDEADYYCCSYAAISPNYVFGTGTKLTVL
notes: Human scFv
EC50 (human CD19 [2]): 12 nM
EC50 (human CD19 [3]): 12.8 nM

B4: Clone 192B scFv (scFv)
scFv: B3 scFv with E1Q, C231S
notes: Human scFv
IC50 (human CD19 [4]): 15.7 nM
EC50 (human CD19 [5]): 7.7 nM

B5: Clone 328 scFv (scFv)
scFv: B6 scFv with D248T, I249V, K250L
notes: Human scFv
EC50 (human CD19 [6]): 10.9 nM
IC50 (human CD19 [7]): 32.9 nM

B7: Clone 285 scFv (scFv)
scFv: B8 scFv with Q1E, D250T, I251V, K252L
notes: Human scFv
IC50 (human CD19 [4]): 9.4 nM
EC50 (human CD19 [6]): 2.5 nM

B13: Clone 1 scFv (scFv)
scFv: EVQLVESGGGLVQPGRSLRLSCAASGFTFDDYAMHWVRQAPGKGLEWVSGISWNSGRIGYADSVKGRFTISRDNAKNSLFLQMNSLRAEDTAVYYCARDQGYHYYDSAEHAFDIWGQGTMVTVSSGGGGSGGGGSGGGGSQSALTQPASVSGSPGQSITISCTGTSSDVGAYNFVSWYQQLPGTAPKFLIYDNNKRPPGIPDRFSGSKSGTSATLGITGLQTGDEADYYCATWDSGLSAVVFGGGTKLTVL
notes: Human scFv
EC50 (human CD19 [11]): 214 nM
EC50 (human CD19 [1]): 214 nM

B14: Clone 227 scFv (scFv)
scFv: EVQLVQSGGGLVQPGRSLRLSCAASGFTFDDYAMHWVRQAPGKGLEWVSGISWNSGSIGYADSVKGRFTISRDNAKNSLYLQMNSLRAEDTAVYYCARDQGYHYYDSAEHAFDIWGQGTVVTVSSGGGGSGGGGSGGGGSDIQLTQSPSTLSASVGDRVTITCRASQSISRWLAWYQQKPGKAPKLLIYDASNLETGVPSRFSGSGSGTDFTFTISSLQPEDIATYYCQQYDNLPLTFGGGTKVEIK
notes: Human scFv
IC50 (human CD19 [12]): 56.1 nM
EC50 (human CD19 [5]): 31.8 nM

B15: Clone 1300 scFv (scFv)
scFv: QMQLVQSGGGLVQPGRSLRLSCAASGFTFDDYAMHWVRQAPGKGLEWVSGISWNSGSIGYADSVKGRFTISRDNAKNSLYLQMNSLRAEDTAVYYCARDQGYHYYDSAEHAFDIWGQGTVVTVSSGGGGSGGGGSGGGGSAIRMTQSPSTLSASVGDRVTITCRASQSISHYLAWYQQKPGKAPKLLIFDASRLASGVPSRFSGSGSGTDFTLTISSLQPEDFATYYCQQSYGAPMFTFGPGTRVDLK
notes: Human scFv
IC50 (human CD19 [12]): 3.9 nM
EC50 (human CD19 [5]): 1.3 nM

B16: Clone 505 scFv (scFv)
scFv: EVQLVESGGGLVQPGRSLRLSCAASGFTFDDYAMHWVRQAPGKGLEWVSGISWNSGRIGYADSVKGRFTISRDNAKNSLFLQMNSLRAEDTAVYYCARDQGYHYYDSAEHAFDIWGQGTMVTVSSQSVLTQPRSLSGSPGQSVTIACTGASTDVGGYNYVSWYQQHPGKAPKLMIYDVNKRPSGVPDRFSGSKSGNTAFLTISGLQAEDEADYYCCSYAGSYTFEVFGGGTKLTVL
EC50 (human CD19 [1]): 139 nM

B17: Clone 79 scFv (scFv)
scFv: EVQLVESGGGLVQPGRSLRLSCAASGFTFDDYAMHWVRQAPGKGLEWVSGISWNSGRIGYADSVKGRFTISRDNAKNSLFLQMNSLRAEDTAVYYCARDQGYHYYDSAEHAFDIWGQGTVVTVSSGGGGSGGGGSGGGGSQSVLTQPPSVSAAPGQKVTISCSGSSSNIGNNYVSWYQQLPGTAPKLLIYDNNKRPSGIPDRFSGSKSGTSATLGITGLQTGDEGDYYCGTWDISLRFGVFGGGTKVTVL
notes: Human scFv
IC50 (human CD19 [7]): 102 nM
EC50 (human CD19 [1]): 65.7 nM
